US20070100561A1, “Crystals of DPP-IV” (priority 2002, published 2007)

B1: ADA: adenosine deaminase, Sigma Type IV, from calf intestinal mucosa (bovine) (protein)
chain: AQTPAFNKPKVELHVHLDGAIKPETILYYGRKRGIALPADTPEELQNIIGMDKPLSLPEFLAKFDYYMPAIAGCREAVKRIAYEFVEMKAKDGVVYVEVRYSPHLLANSKVEPIPWNQAEGDLTPDEVVSLVNQGLQEGERDFGVKVRSILCCMRHQPSWSSEVVELCKKYREQTVVAIDLAGDETIEGSSLFPGHVKAYAEAVKSGVHRTVHAGEVGSANVVKEAVDTLKTERLGHGYHTLEDATLYNRLRQENMHFEVCPWSSYLTGAWKPDTEHPVVRFKNDQVNYSLNTDDPLIFKSTLDTDYQMTKNEMGFTEEEFKRLNINAAKSSFLPEDEKKELLDLLYKAYGMPSPA
B2: sDPP-IVdeglycos: enzymatically deglycosylated sDPP-IV (EndoF1-GST treated) (protein)
chain: GTDDATADSRKTYTLTDYLKNTYRLKLYSLRWISDHEYLYKQENNILVFNAEYGNSSVFLENSTFDEFGHSINDYSISPDGQFILLEYNYVKQWRHSYTASYDIYDLNKRQLITEERIPNNTQWVTWSPVGHKLAYVWNNDIYVKIEPNLPSYRITWTGKEDIIYNGITDWVYEEEVFSAYSALWWSPNGTFLAYAQFNDTEVPLIEYSFYSDESLQYPKTVRVPYPKAGAVNPTVKFFVVNTDSLSSVTNATSIQITAPASMLIGDHYLCDVTWATQERISLQWLRRIQNYSVMDICDYDESSGRWNCLVARQHIEMSTTGWVGRFRPSEPHFTLDGNSFYKIISNEEGYRHICYFQIDKKDCTFITKGTWEVIGIEALTSDYLYYISNEYKGMPGGRNLYKIQLSDYTKVTCLSCELNPERCQYYSVSFSKEAKYYQLRCSGPGLPLYTLHSSVNDKGLRVLEDNSALDKMLQNVQMPSKKLDFIILNETKFWYQMILPPHFDKSKKYPLLLDVYAGPCSQKADTVFRLNWATYLASTENIIVASFDGRGSGYQGDKIMHAINRRLGTFEVEDQIEAARQFSKMGFVDNKRIAIWGWSYGGYVTSMVLGSGSGVFKCGIAVAPVSRWEYYDSVYTERYMGLPTPEDNLDHYRNSTVMSRAENFKQVEYLLIHGTADDNVHFQQSAQISKALVDVGVDFQAMWYTDEDHGIASSTAHQHIYTHMSHFIKQCFSLP
B3: sDPP-IVglycos: glycosylated sDPP-IV (protein)
chain: GTDDATADSRKTYTLTDYLKNTYRLKLYSLRWISDHEYLYKQENNILVFNAEYGNSSVFLENSTFDEFGHSINDYSISPDGQFILLEYNYVKQWRHSYTASYDIYDLNKRQLITEERIPNNTQWVTWSPVGHKLAYVWNNDIYVKIEPNLPSYRITWTGKEDIIYNGITDWVYEEEVFSAYSALWWSPNGTFLAYAQFNDTEVPLIEYSFYSDESLQYPKTVRVPYPKAGAVNPTVKFFVVNTDSLSSVTNATSIQITAPASMLIGDHYLCDVTWATQERISLQWLRRIQNYSVMDICDYDESSGRWNCLVARQHIEMSTTGWVGRFRPSEPHFTLDGNSFYKIISNEEGYRHICYFQIDKKDCTFITKGTWEVIGIEALTSDYLYYISNEYKGMPGGRNLYKIQLSDYTKVTCLSCELNPERCQYYSVSFSKEAKYYQLRCSGPGLPLYTLHSSVNDKGLRVLEDNSALDKMLQNVQMPSKKLDFIILNETKFWYQMILPPHFDKSKKYPLLLDVYAGPCSQKADTVFRLNWATYLASTENIIVASFDGRGSGYQGDKIMHAINRRLGTFEVEDQIEAARQFSKMGFVDNKRIAIWGWSYGGYVTSMVLGSGSGVFKCGIAVAPVSRWEYYDSVYTERYMGLPTPEDNLDHYRNSTVMSRAENFKQVEYLLIHGTADDNVHFQQSAQISKALVDVGVDFQAMWYTDEDHGIASSTAHQHIYTHMSHFIKQCFSLP

Tests used:
DPP-IV = biological target: T1, DPP-IV (Homo sapiens, UniProt P27487); test: Biacore surface plasmon resonance binding to immobilized DPP-IV; details: ADA from bovine
T1 construct: The ectodomain of DPP-IV, residues 31-766 (sDPP-IV), was amplified by PCR using a cDNA; made in house; host or cells: Pichia pastoris strain GS115 (pPICZα-A vector)
Protocol: DPP-IV was immobilized on a CM5 surface plasmon resonance sensor (Biacore) using standard amide coupling chemistry. The organic adlayer on this sensor type consists of carboxymethylated dextran (MW≈100 kDA). After activation of the carboxylic acid groups using carbodiimide/N-hydroxysuccinimide solutions, the surface was contacted with a DPP-IV solution (80 μl) containing≈100 μg/ml protein in acetate buffer (10 mM, pH 4.5). […] The surfaces of two flow cells were modified with protein. […] Hepes buffer (0.01 M Hepes, pH 7.4, 0.15 M NaCl, 3 mM EDTA, 0.005% polysorbate 20 (v/v)) was used as the running buffer. Diprotin-A was disolved directly in this buffer. […] The final inhibitor solution contained less than 0.1% DMSO. Binding experiments were carried out by contacting the immobilized protein surfaces with inhibitor solutions of varying concentrations at a flow rate of 10 μl/min or 30 μl/min. After each contact with inhibitor, the protein surfaces were regenerated by extensively washing with running buffer.

[1] = biological target: T2, sDPP-IV (soluble extracellular domain of human dipeptidyl peptidase IV) (Homo sapiens, UniProt P27487); test: DPP-IV activity assay, fluorescence of products from Ala-Pro-7-amido-4-trifluoromethylcoumarin; format: biochemical; details: Lineweaver-Burk plots; 50 mM Tris/HCl pH 7.8, 100 mM NaCl, 0.1 mg/ml BSA, 0.5% dimethylformamide; 25° C.
T2 construct: The ectodomain of DPP-IV, residues 31-766 (sDPP-IV), was amplified by PCR using a cDNA; made in house; host or cells: Pichia pastoris strain GS115 (pPICZα-A vector)
Protocol: A 20 mM stock solution in 10% DMF is stored at −20° C. until use. […] DPP-IV activity assays were performed in 96 well plates in a total assay volume of 100 μl. The assay buffer consists of S-Buffer containing 0.1 mg/ml BSA. […] Initial rate constants are calculated by best fit linear regression.

Row | Molecule | koff (dissociation rate) of ADA (DPP-IV) | kon of ADA (DPP-IV) | Km [1] | kcat [1]
1 | B1 | 8.75e-05 s⁻¹ | 29800 M⁻¹ s⁻¹ |  | 
2 | B2 |  |  | 17.2 µM | 43.1 s⁻¹
3 | B3 |  |  | 15.5 µM | 37.3 s⁻¹
